Laboratory results taken from publication PMC6566107, “Molecular Analysis of Protein-Protein Interactions in the Ethylene Pathway in the Different Ethylene Receptor Subfamilies” (Frontiers in Plant Science, 2019).

Assays:
[1] = biological target: T1, Arabidopsis thaliana ethylene receptor ETR2 (AtETR2), full-length, type-II subfamily (Arabidopsis thaliana, UniProt Q0WPQ2 1-773, Alexa Fluor 488 succinimidyl-ester label where used as the labeled partner in MST); experiment: MST; 40 nM Alexa Fluor 488-labeled receptor (AtETR1 or AtETR2); unlabeled AtETR1 or AtETR2 (4 µM to 0.49 nM) or ETR1-TM C4SC6S (16 µM to 0.98 nM) titrated; 0.0075% (w/v) FosCholine-16; 60% MST power; 1:1 model; details: both partners purified
T1 construct: ETR2, Arabidopsis thaliana, UniProt Q0WPQ2, full-length, codon optimized cDNA according to NCBI NM_113216.3; The thrombin site of pGEX-4T-1 was changed to a TEV site (ENLYFQG); No cleavage is described; The purified protein runs at an apparent 120 kDa, so GST is probably still attached; The same construct was used with and without the Alexa Fluor 488 label; source: E. coli C43 (DE3), solubilised …
T1 sequence (looked up): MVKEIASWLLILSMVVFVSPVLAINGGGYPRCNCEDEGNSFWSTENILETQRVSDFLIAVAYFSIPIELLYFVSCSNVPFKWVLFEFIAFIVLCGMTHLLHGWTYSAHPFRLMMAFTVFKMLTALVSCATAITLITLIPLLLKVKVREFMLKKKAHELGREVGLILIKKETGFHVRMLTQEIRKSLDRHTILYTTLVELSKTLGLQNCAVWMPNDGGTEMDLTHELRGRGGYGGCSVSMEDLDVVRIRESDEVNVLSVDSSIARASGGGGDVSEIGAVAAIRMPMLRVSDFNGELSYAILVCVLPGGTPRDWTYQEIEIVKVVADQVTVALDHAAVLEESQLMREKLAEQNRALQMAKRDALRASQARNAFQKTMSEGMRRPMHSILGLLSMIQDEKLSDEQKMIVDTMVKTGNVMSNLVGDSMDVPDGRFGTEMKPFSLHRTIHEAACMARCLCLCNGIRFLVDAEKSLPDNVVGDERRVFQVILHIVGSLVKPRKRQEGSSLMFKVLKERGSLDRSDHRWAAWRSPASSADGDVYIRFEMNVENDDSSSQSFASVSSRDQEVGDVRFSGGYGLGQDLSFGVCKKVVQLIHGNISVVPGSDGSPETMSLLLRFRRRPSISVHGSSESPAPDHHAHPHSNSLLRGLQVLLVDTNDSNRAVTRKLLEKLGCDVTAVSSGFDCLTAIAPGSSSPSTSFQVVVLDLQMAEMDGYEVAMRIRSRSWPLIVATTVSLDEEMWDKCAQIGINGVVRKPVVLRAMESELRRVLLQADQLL

[2] = biological target: T2, Arabidopsis thaliana ethylene receptor ETR1 (AtETR1), full-length, type-I subfamily (Arabidopsis thaliana, UniProt P49333 1-738, Alexa Fluor 488 succinimidyl-ester label where used as the labeled partner in MST); experiment: as above; details: both partners purified
T2 construct: ETR1, Arabidopsis thaliana, full-length receptor; source: recombinant, expressed and purified as described in Milić et al., 2018, in FosCholine-16
T2 sequence (looked up): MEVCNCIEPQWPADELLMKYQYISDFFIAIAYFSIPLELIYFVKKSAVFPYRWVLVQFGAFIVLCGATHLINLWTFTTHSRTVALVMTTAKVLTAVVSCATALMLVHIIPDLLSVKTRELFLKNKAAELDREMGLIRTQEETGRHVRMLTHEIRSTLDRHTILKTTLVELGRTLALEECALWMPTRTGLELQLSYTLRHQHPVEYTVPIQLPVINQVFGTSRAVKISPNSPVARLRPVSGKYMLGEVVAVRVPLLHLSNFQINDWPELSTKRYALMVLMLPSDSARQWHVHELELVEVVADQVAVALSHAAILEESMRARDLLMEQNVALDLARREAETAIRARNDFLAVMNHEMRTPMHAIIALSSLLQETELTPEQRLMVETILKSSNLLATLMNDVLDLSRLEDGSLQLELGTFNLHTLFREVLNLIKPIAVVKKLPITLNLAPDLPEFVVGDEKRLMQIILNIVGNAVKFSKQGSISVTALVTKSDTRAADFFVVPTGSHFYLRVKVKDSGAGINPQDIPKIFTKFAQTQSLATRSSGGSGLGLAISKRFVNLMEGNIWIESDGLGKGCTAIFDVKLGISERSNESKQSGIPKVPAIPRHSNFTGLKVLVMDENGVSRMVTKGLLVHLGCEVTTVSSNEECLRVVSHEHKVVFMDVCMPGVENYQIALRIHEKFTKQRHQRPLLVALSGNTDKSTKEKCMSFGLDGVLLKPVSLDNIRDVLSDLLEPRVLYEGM

binding result [1]: binds
binding result [2]: binds
B1: Isolated transmembrane domain of AtETR1 (aa 1-157) with C4S and C6S (domain or fragment, Arabidopsis thaliana, UniProt P49333 1-157, looked up)
chain: MEVSNSIEPQWPADELLMKYQYISDFFIAIAYFSIPLELIYFVKKSAVFPYRWVLVQFGAFIVLCGATHLINLWTFTTHSRTVALVMTTAKVLTAVVSCATALMLVHIIPDLLSVKTRELFLKNKAAELDREMGLIRTQEETGRHVRMLTHEIRSTL
notes: ETR1, Arabidopsis thaliana, transmembrane domain, residues 1-157, cysteines 4 and 6 changed to serine; also called ETR1-TM^C4SC6S; AtETR1-TM^C4SC6S
